Assay results from IntAct's records for PubMed 23353685.

B1: Beta-arrestin-1 (Homo sapiens), P49407 (parent)
chain: MGDKGTRVFKKASPNGKLTVYLGKRDFVDHIDLVDPVDGVVLVDPEYLKERRVYVTLTCAFRYGREDLDVLGLTFRKDLFVANVQSFPPAPEDKKPLTRLQERLIKKLGEHAYPFTFEIPPNLPCSVTLQPGPEDTGKACGVDYEVKAFCAENLEEKIHKRNSVRLVIRKVQYAPERPGPQPTAETTRQFLMSDKPLHLEASLDKEIYYHGEPISVNVHVTNNTNKTVKKIKISVRQYADICLFNTAQYKCPVAMEEADDTVAPSSTFCKVYTLTPFLANNREKRGLALDGKLKHEDTNLASSTLLREGANREILGIIVSYKVKVKLVVSRGGLLGDLASSDVAVELPFTLMHPKPKEEPPHREVPENETPVDTNLIELDTNDDDIVFEDFARQRLKGMKDDKEEEEDGTGSPQLNNR

Variants of: B1
Settings: with gnas1_human GNAS

| effect of a mutation on the interaction | Variant |
| --- | --- |
| decreasing interaction | MGDKGTRVFKKASPNGKLTVYLGKRDFVDHIDKVDPVDGVVLVDPEYLKERRVYVTLTCAFRYGREDLDVLGLTFRKDLFVANVQSFPPAPEDKKPLTRLQERLIKKLGEHAYPFTFEIPPNLPCSVTLQPGPEDTGKACGVDYEVKAFCAENLEEKIHKRNSVRLVIRKVQYAPERPGPQPTAETTRQFLMSDKPLHLEASLDKEIYYHGEPISVNVHVTNNTNKTVKKIKISVRQYADICLFNTAQYKCPVAMEEADDTVAPSSTFCKVYTLTPFLANNREKRGLALDGKLKHEDTNLASSTLLREGANREILGIIVSYKVKVKLVVSRGGLLGDLASSDVAVELPFTLMHPKPKEEPPHREVPENETPVDTNLIELDTNDDDIVFEDFARQRLKGMKDDKEEEEDGTGSPQLNNR [L33K] |
